Assay results published in patent US7067618B1, “Medicinal preparations” (Kyowa Hakko Kogyo Co., Ltd., priority 1998, dated 2006).

Assays:
[1] = Release of lactose from insulin-lactose reaction products caused by pH lowering (HPLC); format: physicochemical; conditions: for Proportion by HPLC, Release of Lactose Caused by pH Lowering to 5.0: pH 5.0, 40° C.; for Proportion by HPLC, Release of Lactose Caused by pH Lowering to 5.9: pH 5.9, 40° C.; for Proportion by HPLC, Release of Lactose Caused by pH Lowering to 6.7: pH 6.7, 40° C.
Method: A solution of 0.2 mg of bovine pancreatic insulin (Wako Pure Chemical Industries, Itd.) in 1 mL of a 2 mmol/L aqueous solution of hydrochloric acid, a solution of 320 mg of anhydrous β-lactose (Nacalai Tesque, Inc.) in 2 mL of distilled water, and 1 mL of a 200 mmol/L phosphate buffer (pH 8.4) were mixed in a test tube to give a mixture having a pH of about 8.1. The test tube was put into a constant temperature water bath at 40° C. to cause reaction. The reaction mixture was sampled after 0, 5 and 24 hours, and analyzed for products obtained by the reaction of insulin with lactose by high performance liquid chromatography (HPLC) under the following conditions. • Column: YMC-Pack ODS-A or YMC-Pack ODS-AM, 6.0×150 mm • Mobile phase: 100 mmol/L phosphate buffer (pH 8.0) containing 0.001% Triton X-100: acetonitrile containing 0.001% Triton X-100=25 parts by volume: 9 parts by volume • Flow rate: 1.3 mL/minute • Detection wavelength: 210 nm
(§1) A solution of 0.2 mg of bovine pancreatic insulin (Wako Pure Chemical Industries, Itd.) in 1 mL of a 2 mmol/L aqueous solution of hydrochloric acid, a solution of 320 mg of anhydrous β-lactose (Nacalai Tesque, Inc.) in 2 mL of distilled water, and 1 mL of a 200 mmol/L phosphate buffer (pH 8.4) were mixed in a test tube. The mixture was subjected to reaction at 40° C. for 24 hours. To 3 mL of the resulting solution was added 0.5 mL of a 50 mmol/L aqueous solution of citric acid to adjust the pH to 6.7, and the mixture was subjected to reaction at 40° C. The samples collected from the reaction mixture 0 and 30 minutes after the start of the reaction were analyzed for products obtained by the reaction of insulin with lactose by HPLC in a manner similar to that in Example 1.
as §1, with “100” for “50”, “5.9,” for “6.7,”, “The” for “The samples collected from the”, “was intermittently” for “0 and 30 minutes after the start of the reaction were”
as §1, with “a 150” for “a 50”, “to 5.0,” for “to 6.7,”, “The” for “The samples collected from the”, “mixture was intermittently sampled” for “mixture 0”, “and” for “and 30 minutes after the start of the reaction were”

[2] = Release of sialyllactose from insulin-sialyllactose reaction products caused by pH lowering (HPLC); format: physicochemical; conditions: for Proportion by HPLC, Release of Sialyllactose Caused by pH Lowering to 5.3: pH 5.3, 40° C.; for Proportion by HPLC, Release of Sialyllactose Caused by pH Lowering to 6.4: pH 6.4, 40° C.
Method: Bovine pancreatic insulin (0.2 mg, Wako Pure Chemical Industries, Ltd.) was dissolved in 1 mL of a 1 mmol/L aqueous solution of hydrochloric acid. To about 25 mg of sialyllactose of 75% purity (a mixture of 3′-sialyllactose and 6′-sialyllactose, Boehringer Mannheim GmbH) was added 0.1 mL of a 600 mmol/L aqueous solution of disodium hydrogenphosphate to make a solution. The insulin solution (0.1 mL) and the sialyllactose solution (0.1 mL) were mixed in a test tube to give a mixture having a pH of about 7.8. The test tube was put into a constant temperature water bath at 40° C. to cause reaction and left for 3 days. The reaction mixture was sampled intermittently, followed by centrifugation at 3000 rpm for 20 minutes to remove insoluble materials. The samples collected 0, 1 and 3 days after the start of the reaction were analyzed for products obtained by the reaction of insulin with sialyllactose by HPLC under the following conditions. • Column: YMC-Pack ODS-AP, 4.6×150 mm • Mobile phase: 20 mmol/L phosphate buffer (pH 8.0) containing 0.001% Triton X-100: acetonitrile containing 0.001% Triton X-100=411 parts by volume: 140 parts by volume • Flow rate: 1.3 mL/minute • Detection wavelength: 220 nm
(§2) Bovine pancreatic insulin (0.2 mg, Wako Pure Chemical Industries, Ltd.) was dissolved in 1 mL of a 1 mmol/L aqueous solution of hydrochloric acid. To about 25 mg of sialyllactose of 75% purity (a mixture of 3′-sialyllactose and 6′-sialyllactose, Boehringer Mannheim GmbH) was added 0.1 mL of a 600 mmol/L aqueous solution of disodium hydrogenphosphate to make a solution. The insulin solution (0.1 mL) and the sialyllactose solution (0.1 mL) were mixed in a test tube to give a solution having a pH of about 7.8. This solution was subjected to reaction at 40° C. for 3 days and then centrifuged at 3000 rpm for 20 minutes. To 40 μL of the supernatant was added 0.04 mL of a 50 mmol/L-aqueous solution of citric acid to adjust the pH to 6.4, and the resulting solution was subjected to reaction at 40° C. The reaction mixture was intermittently sampled and analyzed for products obtained by the reaction of insulin with sialyllactose by HPLC in a manner similar to that in Example 2.
as §2, with “centrifuged 1” for “centrifuged”, “100 mmol/L aqueous” for “50 mmol/L-aqueous”, “5.3,” for “6.4,”

Insulin: bovine pancreatic insulin (Wako Pure Chemical Industries); free insulin to which no sugar is bound
Proportion by HPLC, Release of Lactose Caused by pH Lowering to 5.0 ([1]; 0 minute): 21% | Proportion by HPLC, Release of Lactose Caused by pH Lowering to 5.0 ([1]; 2 minutes): 60% | Proportion by HPLC, Release of Lactose Caused by pH Lowering to 5.0 ([1]; 10 minutes): 83% | Proportion by HPLC, Release of Lactose Caused by pH Lowering to 5.0 ([1]; 30 minutes): 93% | Proportion by HPLC, Release of Lactose Caused by pH Lowering to 5.0 ([1]; 60 minutes): 95% | Proportion by HPLC, Release of Lactose Caused by pH Lowering to 5.9 ([1]; 0 minute): 24% | Proportion by HPLC, Release of Lactose Caused by pH Lowering to 5.9 ([1]; 2 minutes): 35% | Proportion by HPLC, Release of Lactose Caused by pH Lowering to 5.9 ([1]; 10 minutes): 59% | Proportion by HPLC, Release of Lactose Caused by pH Lowering to 5.9 ([1]; 30 minutes): 76% | Proportion by HPLC, Release of Lactose Caused by pH Lowering to 5.9 ([1]; 60 minutes): 75% | Proportion by HPLC, Release of Lactose Caused by pH Lowering to 6.7 ([1]; 0 minute): 25% | Proportion by HPLC, Release of Lactose Caused by pH Lowering to 6.7 ([1]; 30 minutes): 45% | Proportion by HPLC, Release of Sialyllactose Caused by pH Lowering to 5.3 ([2]; 0 minute): 31% | Proportion by HPLC, Release of Sialyllactose Caused by pH Lowering to 5.3 ([2]; 10 minutes): 58% | Proportion by HPLC, Release of Sialyllactose Caused by pH Lowering to 5.3 ([2]; 30 minutes): 80% | Proportion by HPLC, Release of Sialyllactose Caused by pH Lowering to 6.4 ([2]; 0 minute): 31% | Proportion by HPLC, Release of Sialyllactose Caused by pH Lowering to 6.4 ([2]; 10 minutes): 44% | Proportion by HPLC, Release of Sialyllactose Caused by pH Lowering to 6.4 ([2]; 30 minutes): 50%
